For one molecule, Kd results are on record in article PMC4052849 (2014).

Broadly, the Kd is the concentration at which binding is half-saturated. High values mean a looser complex, low ones a tighter complex.

The assay addresses T1, DS-SILY20 (decorin mimic, SILY peptide-dermatan sulfate conjugate) (about 20 SILY peptides conjugated via BMPH to dermatan sulfate).
T1 chain: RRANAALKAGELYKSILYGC
The assay is described as follows: solid-phase binding assay.

B1: IFN-γ (protein)
chain: QDPYVKEAENLKKYFNAGHSDVADNGTLFLGILKNWKEESDRKIMQSQIVSFYFKLFKNFKDDQSIQKSVETIKEDMNVKFFNSNKKKRDDFEKLTNYSVTDLNVQRKAIHELIQVMAELSPAAKTGKRKRSQMLFRG
B1 had a dissociation constant (Kd) of 55.1 nM.
